# Measurements published in patent US20200230057A1, “Pharmaceutical Compositions, Methods for Preparation using Lipid Vesicle Particles of Defined Size, and Uses Thereof” (IMMUNOVACCINE TECHNOLOGIES INC., priority 2017, published 2020).
# Test: HPLC peptide recovery before and after freeze-drying
# Conditions: set specification 0.40-0.60 mg/mL for neoantigens, 0.2-0.3 mg/mL for A16L
# Procedure: The composition prepared as described in Example 4, containing 14 neoantigens and the A16L T-helper peptide, was subjected to HPLC analysis to evaluate the peptide stability before and after freeze-drying.
# Experimental Conditions: • IPQC Solutions: Dilute the IPQC solutions with Methanol and then with Mobile Phase A, e.g. as follows: • 100 mg In-Process Testing Solution • +450 μL Methanol, mix • +450 μL Mobile Phase A, mix • Mix by vortexing. Samples containing lipids will be slightly hazy. Dilution factor=10×. • Lyophilisates (for Release and Stability Testing): Solubilize the lyophilisate with Ultrapure lab water. Add 3-4 glass beads and vortex vigorously for 1 minute to assure complete homogenization. Dilute the solution with Methanol and subsequently with Mobile Phase A, e.g. as follows: • 100 mg In-Process Testing Solution • +450 μL Methanol, mix • +450 μL Mobile Phase A, mix • Mix by vortexing. The sample preparations will be slightly hazy. Dilution factor=20×.
# The dried preparations were solubilized in water for HPLC analysis. T=0 is the day in which the samples were removed from the freeze-dryer. T=1M and T=3M are 1 month and 3 months after T=0, respectively, with the dried preparation having been stored at −20° C.
row,Sequence,Peptide concentration relative to set specification
1,CGTAFFINFIAIYHHASRAIPFGTMVA (Mut36) [Mut 36],consistently outside the set specification
2,IPSGTTILNCFHDVLSGKLSGGSPGVP (Mut29A) [Mut 29a],outside the set specification
3,VVDRNPQFLDPVLAYLMKGLCEKPLAS (Mut17) [Mut 17],outside the set specification
